The values below come from US20260015399A1 (Boehringer Ingelheim, published 2026).

*1 amine or outer side, *2 acyl side, *3 side chain or, on linkers, in order; H or OH if unused. Side-chain parts run from the residue outwards. The star is where a group is joined. C18 diacid = O=C(O)CCCCCCCCCCCCCCCCC(=O)*; γGlu = O=C(O)[C@H](CCC(=O)[*:2])N[*:1]; Isovaleryl = CC(C)CC(=O)*; Ahx = NCCCCCC(=O)O Bounds are passed on as bounds.

One test concerns the target T1, human NPY5 receptor (human, UniProt Q15761 1-445).
T1 sequence (looked up): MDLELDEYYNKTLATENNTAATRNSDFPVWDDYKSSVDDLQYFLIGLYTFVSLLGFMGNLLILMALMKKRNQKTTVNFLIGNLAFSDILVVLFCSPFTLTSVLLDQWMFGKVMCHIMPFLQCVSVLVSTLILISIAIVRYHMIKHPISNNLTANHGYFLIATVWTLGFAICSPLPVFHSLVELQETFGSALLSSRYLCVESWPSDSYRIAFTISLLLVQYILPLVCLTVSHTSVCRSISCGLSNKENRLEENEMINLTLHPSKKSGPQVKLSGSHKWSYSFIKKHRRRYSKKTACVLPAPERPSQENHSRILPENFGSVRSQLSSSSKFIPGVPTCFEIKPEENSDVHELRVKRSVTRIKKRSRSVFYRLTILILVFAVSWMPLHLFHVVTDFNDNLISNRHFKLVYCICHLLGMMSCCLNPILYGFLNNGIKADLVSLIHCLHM
The test is described as follows: cell-based or functional assay.

Test [1] has as its target T2, human NPY2 receptor (human, UniProt P49146 1-381).
T2 sequence (looked up): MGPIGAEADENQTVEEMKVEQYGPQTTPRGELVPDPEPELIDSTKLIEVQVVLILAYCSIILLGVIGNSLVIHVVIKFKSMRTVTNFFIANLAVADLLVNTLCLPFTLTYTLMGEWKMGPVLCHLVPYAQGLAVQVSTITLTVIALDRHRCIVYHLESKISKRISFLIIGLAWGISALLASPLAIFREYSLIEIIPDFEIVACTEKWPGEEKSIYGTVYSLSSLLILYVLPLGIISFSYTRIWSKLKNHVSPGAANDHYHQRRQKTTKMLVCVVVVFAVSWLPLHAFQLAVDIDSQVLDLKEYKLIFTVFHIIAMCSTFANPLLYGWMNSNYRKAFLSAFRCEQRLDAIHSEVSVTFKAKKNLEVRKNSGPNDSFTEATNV
Description: cell-based or functional assay.

The target of test [2] is T2, human NPY2 receptor. Description: RLB: displacement of 125I-PYY(1-36) from hNPY2R membranes. On the technique in general: In a radioligand displacement assay an active substance lowers the binding of a labelled ligand.

B1: Compound 12 (peptide)
peptide: Isovaleryl-APEK([Ahx-γGlu-C18 diacid])PEEDASPEELQQYYVSLRHYYHWLTRQRY-NH2
SMILES: CC(C)CC(=O)N[C@@H](C)C(=O)N1CCC[C@H]1C(=O)N[C@@H](CCC(=O)O)C(=O)N[C@@H](CCCCNC(=O)CCCCCNC(=O)CC[C@H](NC(=O)CCCCCCCCCCCCCCCCC(=O)O)C(=O)O)C(=O)N1CCC[C@H]1C(=O)N[C@@H](CCC(=O)O)C(=O)N[C@@H](CCC(=O)O)C(=O)N[C@@H](CC(=O)O)C(=O)N[C@@H](C)C(=O)N[C@@H](CO)C(=O)N1CCC[C@H]1C(=O)N[C@@H](CCC(=O)O)C(=O)N[C@@H](CCC(=O)O)C(=O)N[C@@H](CC(C)C)C(=O)N[C@@H](CCC(N)=O)C(=O)N[C@@H](CCC(N)=O)C(=O)N[C@@H](Cc1ccc(O)cc1)C(=O)N[C@@H](Cc1ccc(O)cc1)C(=O)N[C@H](C(=O)N[C@@H](CO)C(=O)N[C@@H](CC(C)C)C(=O)N[C@@H](CCCNC(=N)N)C(=O)N[C@@H](Cc1c[nH]cn1)C(=O)N[C@@H](Cc1ccc(O)cc1)C(=O)N[C@@H](Cc1ccc(O)cc1)C(=O)N[C@@H](Cc1c[nH]cn1)C(=O)N[C@@H](Cc1c[nH]c2ccccc12)C(=O)N[C@@H](CC(C)C)C(=O)N[C@H](C(=O)N[C@@H](CCCNC(=N)N)C(=O)N[C@@H](CCC(N)=O)C(=O)N[C@@H](CCCNC(=N)N)C(=O)N[C@@H](Cc1ccc(O)cc1)C(N)=O)[C@@H](C)O)C(C)C
As to B1, the figures for the “EC50, HTRF cAMP Gi assay” value with human NPY5 receptor and with human NPY2 receptor [1] were > 5000 nM and 0.25 nM, respectively. This molecule also returned an inhibition constant (Ki) with human NPY2 receptor [2] of 4.16 nM.

B2: Compound 198 (peptide)
peptide: Isovaleryl-APAK([Ahx-γGlu-C18 diacid])PEADAEPEEIQRYYVSLRHYYNWLTRQRY-NH2
SMILES: CC[C@H](C)[C@H](NC(=O)[C@H](CCC(=O)O)NC(=O)[C@H](CCC(=O)O)NC(=O)[C@@H]1CCCN1C(=O)[C@H](CCC(=O)O)NC(=O)[C@H](C)NC(=O)[C@H](CC(=O)O)NC(=O)[C@H](C)NC(=O)[C@H](CCC(=O)O)NC(=O)[C@@H]1CCCN1C(=O)[C@H](CCCCNC(=O)CCCCCNC(=O)CC[C@H](NC(=O)CCCCCCCCCCCCCCCCC(=O)O)C(=O)O)NC(=O)[C@H](C)NC(=O)[C@@H]1CCCN1C(=O)[C@H](C)NC(=O)CC(C)C)C(=O)N[C@@H](CCC(N)=O)C(=O)N[C@@H](CCCNC(=N)N)C(=O)N[C@@H](Cc1ccc(O)cc1)C(=O)N[C@@H](Cc1ccc(O)cc1)C(=O)N[C@H](C(=O)N[C@@H](CO)C(=O)N[C@@H](CC(C)C)C(=O)N[C@@H](CCCNC(=N)N)C(=O)N[C@@H](Cc1c[nH]cn1)C(=O)N[C@@H](Cc1ccc(O)cc1)C(=O)N[C@@H](Cc1ccc(O)cc1)C(=O)N[C@@H](CC(N)=O)C(=O)N[C@@H](Cc1c[nH]c2ccccc12)C(=O)N[C@@H](CC(C)C)C(=O)N[C@H](C(=O)N[C@@H](CCCNC(=N)N)C(=O)N[C@@H](CCC(N)=O)C(=O)N[C@@H](CCCNC(=N)N)C(=O)N[C@@H](Cc1ccc(O)cc1)C(N)=O)[C@@H](C)O)C(C)C
For B2, the inhibition constant (Ki) in the test with human NPY2 receptor [2] came to 1.38 nM. As for Isovaleryl-APEK([Ahx-γGlu-C18 diacid])PEADASPEEIQRYYVSLRHYYNWLTRQRY-NH2 [Compound 140], in the test with human NPY5 receptor, the “EC50, HTRF cAMP Gi assay” value was > 5000 nM. In the test with human NPY2 receptor [2], the affinity corresponds to a Ki of 1.41 nM.

B3: Compound 192 (peptide)
peptide: Isovaleryl-APEK([Ahx-γGlu-C18 diacid])PEAPASPEELQRYYVSLRHYYNWLTRQRY-NH2
SMILES: CC(C)CC(=O)N[C@@H](C)C(=O)N1CCC[C@H]1C(=O)N[C@@H](CCC(=O)O)C(=O)N[C@@H](CCCCNC(=O)CCCCCNC(=O)CC[C@H](NC(=O)CCCCCCCCCCCCCCCCC(=O)O)C(=O)O)C(=O)N1CCC[C@H]1C(=O)N[C@@H](CCC(=O)O)C(=O)N[C@@H](C)C(=O)N1CCC[C@H]1C(=O)N[C@@H](C)C(=O)N[C@@H](CO)C(=O)N1CCC[C@H]1C(=O)N[C@@H](CCC(=O)O)C(=O)N[C@@H](CCC(=O)O)C(=O)N[C@@H](CC(C)C)C(=O)N[C@@H](CCC(N)=O)C(=O)N[C@@H](CCCNC(=N)N)C(=O)N[C@@H](Cc1ccc(O)cc1)C(=O)N[C@@H](Cc1ccc(O)cc1)C(=O)N[C@H](C(=O)N[C@@H](CO)C(=O)N[C@@H](CC(C)C)C(=O)N[C@@H](CCCNC(=N)N)C(=O)N[C@@H](Cc1c[nH]cn1)C(=O)N[C@@H](Cc1ccc(O)cc1)C(=O)N[C@@H](Cc1ccc(O)cc1)C(=O)N[C@@H](CC(N)=O)C(=O)N[C@@H](Cc1c[nH]c2ccccc12)C(=O)N[C@@H](CC(C)C)C(=O)N[C@H](C(=O)N[C@@H](CCCNC(=N)N)C(=O)N[C@@H](CCC(N)=O)C(=O)N[C@@H](CCCNC(=N)N)C(=O)N[C@@H](Cc1ccc(O)cc1)C(N)=O)[C@@H](C)O)C(C)C
Molecule B3 registered a Ki in the test with human NPY2 receptor [2] of 0.74 nM.

B4: Compound 199 (peptide)
peptide: Isovaleryl-APAK([Ahx-γGlu-C18 diacid])PEEEASPEELQRYYVSLRHYYNWLTRQRY-NH2
SMILES: CC(C)CC(=O)N[C@@H](C)C(=O)N1CCC[C@H]1C(=O)N[C@@H](C)C(=O)N[C@@H](CCCCNC(=O)CCCCCNC(=O)CC[C@H](NC(=O)CCCCCCCCCCCCCCCCC(=O)O)C(=O)O)C(=O)N1CCC[C@H]1C(=O)N[C@@H](CCC(=O)O)C(=O)N[C@@H](CCC(=O)O)C(=O)N[C@@H](CCC(=O)O)C(=O)N[C@@H](C)C(=O)N[C@@H](CO)C(=O)N1CCC[C@H]1C(=O)N[C@@H](CCC(=O)O)C(=O)N[C@@H](CCC(=O)O)C(=O)N[C@@H](CC(C)C)C(=O)N[C@@H](CCC(N)=O)C(=O)N[C@@H](CCCNC(=N)N)C(=O)N[C@@H](Cc1ccc(O)cc1)C(=O)N[C@@H](Cc1ccc(O)cc1)C(=O)N[C@H](C(=O)N[C@@H](CO)C(=O)N[C@@H](CC(C)C)C(=O)N[C@@H](CCCNC(=N)N)C(=O)N[C@@H](Cc1c[nH]cn1)C(=O)N[C@@H](Cc1ccc(O)cc1)C(=O)N[C@@H](Cc1ccc(O)cc1)C(=O)N[C@@H](CC(N)=O)C(=O)N[C@@H](Cc1c[nH]c2ccccc12)C(=O)N[C@@H](CC(C)C)C(=O)N[C@H](C(=O)N[C@@H](CCCNC(=N)N)C(=O)N[C@@H](CCC(N)=O)C(=O)N[C@@H](CCCNC(=N)N)C(=O)N[C@@H](Cc1ccc(O)cc1)C(N)=O)[C@@H](C)O)C(C)C
In the test with human NPY2 receptor [2], B4 registered a Ki of 2.87 nM.

B5: Compound 191 (peptide)
peptide: Isovaleryl-APEK([Ahx-γGlu-C18 diacid])PEEDATPEEIQRYYESLRHYYNWLTRQRY-NH2
SMILES: CC[C@H](C)[C@H](NC(=O)[C@H](CCC(=O)O)NC(=O)[C@H](CCC(=O)O)NC(=O)[C@@H]1CCCN1C(=O)[C@@H](NC(=O)[C@H](C)NC(=O)[C@H](CC(=O)O)NC(=O)[C@H](CCC(=O)O)NC(=O)[C@H](CCC(=O)O)NC(=O)[C@@H]1CCCN1C(=O)[C@H](CCCCNC(=O)CCCCCNC(=O)CC[C@H](NC(=O)CCCCCCCCCCCCCCCCC(=O)O)C(=O)O)NC(=O)[C@H](CCC(=O)O)NC(=O)[C@@H]1CCCN1C(=O)[C@H](C)NC(=O)CC(C)C)[C@@H](C)O)C(=O)N[C@@H](CCC(N)=O)C(=O)N[C@@H](CCCNC(=N)N)C(=O)N[C@@H](Cc1ccc(O)cc1)C(=O)N[C@@H](Cc1ccc(O)cc1)C(=O)N[C@@H](CCC(=O)O)C(=O)N[C@@H](CO)C(=O)N[C@@H](CC(C)C)C(=O)N[C@@H](CCCNC(=N)N)C(=O)N[C@@H](Cc1c[nH]cn1)C(=O)N[C@@H](Cc1ccc(O)cc1)C(=O)N[C@@H](Cc1ccc(O)cc1)C(=O)N[C@@H](CC(N)=O)C(=O)N[C@@H](Cc1c[nH]c2ccccc12)C(=O)N[C@@H](CC(C)C)C(=O)N[C@H](C(=O)N[C@@H](CCCNC(=N)N)C(=O)N[C@@H](CCC(N)=O)C(=O)N[C@@H](CCCNC(=N)N)C(=O)N[C@@H](Cc1ccc(O)cc1)C(N)=O)[C@@H](C)O
As to B5, affinity in the test with human NPY2 receptor [2] was put at a Ki of 8.32 nM.

B6: Compound 174 (peptide)
peptide: Isovaleryl-APEK([Ahx-γGlu-C18 diacid])PGADASPEKLQRYYVSLRHYYHKLTRQRY-NH2
SMILES: CC(C)CC(=O)N[C@@H](C)C(=O)N1CCC[C@H]1C(=O)N[C@@H](CCC(=O)O)C(=O)N[C@@H](CCCCNC(=O)CCCCCNC(=O)CC[C@H](NC(=O)CCCCCCCCCCCCCCCCC(=O)O)C(=O)O)C(=O)N1CCC[C@H]1C(=O)NCC(=O)N[C@@H](C)C(=O)N[C@@H](CC(=O)O)C(=O)N[C@@H](C)C(=O)N[C@@H](CO)C(=O)N1CCC[C@H]1C(=O)N[C@@H](CCC(=O)O)C(=O)N[C@@H](CCCCN)C(=O)N[C@@H](CC(C)C)C(=O)N[C@@H](CCC(N)=O)C(=O)N[C@@H](CCCNC(=N)N)C(=O)N[C@@H](Cc1ccc(O)cc1)C(=O)N[C@@H](Cc1ccc(O)cc1)C(=O)N[C@H](C(=O)N[C@@H](CO)C(=O)N[C@@H](CC(C)C)C(=O)N[C@@H](CCCNC(=N)N)C(=O)N[C@@H](Cc1c[nH]cn1)C(=O)N[C@@H](Cc1ccc(O)cc1)C(=O)N[C@@H](Cc1ccc(O)cc1)C(=O)N[C@@H](Cc1c[nH]cn1)C(=O)N[C@@H](CCCCN)C(=O)N[C@@H](CC(C)C)C(=O)N[C@H](C(=O)N[C@@H](CCCNC(=N)N)C(=O)N[C@@H](CCC(N)=O)C(=O)N[C@@H](CCCNC(=N)N)C(=O)N[C@@H](Cc1ccc(O)cc1)C(N)=O)[C@@H](C)O)C(C)C
With B6, the affinity with human NPY2 receptor [2] corresponds to a Ki of 0.21 nM.

A word on the Ki: it is the equilibrium dissociation constant of an inhibitor or competing ligand from its target.
